Source: publication PMC9482650, “Quantitative fragmentomics allow affinity mapping of interactomes” (Nature Communications, 2022)
Changes are numbered by the printed parent chain.

How the values were obtained:
Assay in all cases: holdup assay
Set-up in all cases: key: below the threshold = too weak to quantify, mostly under pKd 3.1 to 4
Details in all cases: plain residues with an end cap or a label only (N-terminal biotin on a linker: ado-ado)
GRIP2_7, Q9C0E4 = target: GRIP2_7, Q9C0E4
LIN7A, O14910 = target: T1, LIN7A, O14910
T1 sequence (O14910 103-200, limits assumed, looked up): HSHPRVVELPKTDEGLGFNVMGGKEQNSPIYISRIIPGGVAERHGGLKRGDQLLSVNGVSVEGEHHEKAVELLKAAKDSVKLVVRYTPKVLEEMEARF

LIMK2, P53671 = target: LIMK2, P53671
LIMK2, P53671, sequence (P53671 143-248): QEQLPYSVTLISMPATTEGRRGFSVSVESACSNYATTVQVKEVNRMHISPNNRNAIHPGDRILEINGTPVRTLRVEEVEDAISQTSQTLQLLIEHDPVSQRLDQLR

PARD3B_1, Q8TEW8 = target: T2, PARD3B_1, Q8TEW8
T2 sequence (Q8TEW8 196-299, limits assumed, looked up): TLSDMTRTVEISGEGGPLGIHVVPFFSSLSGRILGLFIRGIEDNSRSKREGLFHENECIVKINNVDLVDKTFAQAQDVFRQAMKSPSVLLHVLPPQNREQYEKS

MAGI3_2, Q5TCQ9 = target: MAGI3_2, Q5TCQ9
MAGI3_2, Q5TCQ9, sequence (Q5TCQ9 398-503): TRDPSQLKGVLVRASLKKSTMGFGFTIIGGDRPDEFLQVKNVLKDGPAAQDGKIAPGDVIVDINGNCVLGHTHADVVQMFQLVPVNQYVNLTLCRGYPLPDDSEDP

GRASP, Q7Z6J2 = target: GRASP, Q7Z6J2
GRASP, Q7Z6J2, sequence (Q7Z6J2 96-193): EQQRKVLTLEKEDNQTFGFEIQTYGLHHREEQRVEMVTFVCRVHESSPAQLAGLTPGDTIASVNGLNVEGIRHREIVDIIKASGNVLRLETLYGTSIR

RAPGEF6, Q8TEU7 = target: T3, RAPGEF6, Q8TEU7
T3 sequence (Q8TEU7 525-625, limits assumed, looked up): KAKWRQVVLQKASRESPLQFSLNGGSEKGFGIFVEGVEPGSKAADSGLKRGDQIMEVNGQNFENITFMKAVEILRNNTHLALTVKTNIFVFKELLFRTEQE

HTRA2, O43464 = target: HTRA2, O43464
HTRA2, O43464, sequence (O43464 355-458): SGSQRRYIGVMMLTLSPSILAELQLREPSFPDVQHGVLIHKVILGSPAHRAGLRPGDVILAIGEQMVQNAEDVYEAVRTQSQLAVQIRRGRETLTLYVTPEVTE

Inadl_9, Q8NI35 = target: Inadl_9, Q8NI35
Inadl_9, Q8NI35, sequence (Q8NI35 1530-1615): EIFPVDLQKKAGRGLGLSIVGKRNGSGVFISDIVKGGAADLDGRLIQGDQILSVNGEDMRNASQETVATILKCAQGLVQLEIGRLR

APBA1_2, Q02410 = target: T4, APBA1_2, Q02410
T4 sequence (Q02410 742-832, limits assumed, looked up): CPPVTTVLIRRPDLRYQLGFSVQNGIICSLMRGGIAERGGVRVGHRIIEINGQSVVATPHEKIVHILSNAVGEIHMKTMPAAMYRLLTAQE

SNTG2, Q9NY99 = target: T5, SNTG2, Q9NY99
T5 sequence (Q9NY99 68-166, limits assumed, looked up): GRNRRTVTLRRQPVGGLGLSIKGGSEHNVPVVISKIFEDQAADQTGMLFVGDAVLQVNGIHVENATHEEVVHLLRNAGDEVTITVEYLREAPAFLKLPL

MAGI2_6, Q86UL8 = target: MAGI2_6, Q86UL8
MAGI2_6, Q86UL8, sequence (Q86UL8 1141-1229): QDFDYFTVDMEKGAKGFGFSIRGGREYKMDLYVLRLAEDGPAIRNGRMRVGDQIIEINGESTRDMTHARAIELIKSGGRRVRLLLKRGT

FRMPD2_3, Q68DX3 = target: FRMPD2_3, Q68DX3
FRMPD2_3, Q68DX3, sequence (Q68DX3 1073-1166): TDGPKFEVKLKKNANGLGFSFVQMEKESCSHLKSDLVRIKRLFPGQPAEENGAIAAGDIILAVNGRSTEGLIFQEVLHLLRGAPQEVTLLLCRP

LIN7C, Q9NUP9 = target: T6, LIN7C, Q9NUP9
T6 sequence (Q9NUP9 88-185, limits assumed, looked up): T1 sequence (O14910 103-200, limits assumed, looked up) with D13E, V20I, V40I, E42D, K77Q, D78G, S79K, A96S

FRMPD3, Q5JV73 = target: FRMPD3, Q5JV73
FRMPD3, Q5JV73, sequence (Q5JV73 12-100): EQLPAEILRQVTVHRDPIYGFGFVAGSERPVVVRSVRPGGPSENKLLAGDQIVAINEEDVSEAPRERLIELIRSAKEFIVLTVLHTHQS

DLG3_1, Q92796 = target: T7, DLG3_1, Q92796
T7 sequence (Q92796 125-227, limits assumed, looked up): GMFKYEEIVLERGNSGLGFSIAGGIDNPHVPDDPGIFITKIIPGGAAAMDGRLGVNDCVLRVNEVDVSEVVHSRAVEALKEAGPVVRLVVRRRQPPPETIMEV

APBA2_1, Q99767 = target: T8, APBA2_1, Q99767
T8 sequence (Q99767 563-664, limits assumed, looked up): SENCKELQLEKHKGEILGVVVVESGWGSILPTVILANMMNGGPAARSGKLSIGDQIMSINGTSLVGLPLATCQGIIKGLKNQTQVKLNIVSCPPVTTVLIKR

ARHGEF11, O15085 = target: T9, ARHGEF11, O15085
T9 sequence (O15085 42-136, limits assumed, looked up): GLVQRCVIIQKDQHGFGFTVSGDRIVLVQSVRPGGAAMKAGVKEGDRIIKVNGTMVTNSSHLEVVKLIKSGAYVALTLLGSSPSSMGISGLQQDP

Inadl_10, Q8NI35 = target: Inadl_10, Q8NI35
Inadl_10, Q8NI35, sequence (Q8NI35 1673-1763): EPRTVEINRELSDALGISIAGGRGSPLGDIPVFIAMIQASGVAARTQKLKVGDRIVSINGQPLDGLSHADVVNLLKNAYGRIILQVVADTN

DLG1_2, Q12959 = target: DLG1_2, Q12959
DLG1_2, Q12959, sequence (Q12959 314-412): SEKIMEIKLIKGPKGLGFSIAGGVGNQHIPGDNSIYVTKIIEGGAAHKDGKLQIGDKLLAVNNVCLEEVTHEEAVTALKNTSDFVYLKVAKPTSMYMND

DLG2_3, Q15700 = target: DLG2_3, Q15700
PCLO, Q9Y6V0 = target: T10, PCLO, Q9Y6V0
T10 sequence (Q9Y6V0 4491-4600, limits assumed, looked up): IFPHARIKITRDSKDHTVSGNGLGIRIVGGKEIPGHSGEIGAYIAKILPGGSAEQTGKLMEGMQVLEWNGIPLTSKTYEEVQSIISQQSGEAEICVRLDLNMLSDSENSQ

DLG5_1, Q8TDM6 = target: DLG5_1, Q8TDM6
DLG5_1, Q8TDM6, sequence (Q8TDM6 617-713): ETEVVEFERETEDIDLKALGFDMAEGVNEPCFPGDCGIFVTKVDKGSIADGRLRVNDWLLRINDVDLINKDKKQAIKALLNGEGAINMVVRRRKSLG

LNX1_2, Q8TBB1 = target: LNX1_2, Q8TBB1
LNX1_2, Q8TBB1, sequence (Q8TBB1 371-470): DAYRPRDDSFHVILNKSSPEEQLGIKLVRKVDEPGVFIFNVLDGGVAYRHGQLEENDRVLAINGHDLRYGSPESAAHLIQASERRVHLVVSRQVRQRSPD

LNX1_1, Q8TBB1 = target: LNX1_1, Q8TBB1
LNX1_1, Q8TBB1, sequence (Q8TBB1 261-371): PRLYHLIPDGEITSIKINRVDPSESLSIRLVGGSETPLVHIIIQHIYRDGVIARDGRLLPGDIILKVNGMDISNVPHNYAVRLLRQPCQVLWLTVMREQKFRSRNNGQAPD

TX1BP3, O14907 = target: T11, TX1BP3, O14907
T11 sequence (O14907 10-122, limits assumed, looked up): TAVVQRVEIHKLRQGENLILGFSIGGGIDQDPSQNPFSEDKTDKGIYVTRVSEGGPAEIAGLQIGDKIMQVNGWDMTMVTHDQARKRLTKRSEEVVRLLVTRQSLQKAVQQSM

AHNAK1, Q09666 = target: AHNAK1, Q09666
AHNAK1, Q09666, sequence (Q09666 4-100): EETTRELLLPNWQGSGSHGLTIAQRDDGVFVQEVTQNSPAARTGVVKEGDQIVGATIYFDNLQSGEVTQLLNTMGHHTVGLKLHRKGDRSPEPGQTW

GRIP2_7, Q9C0E4, sequence (Q9C0E4 934-1023): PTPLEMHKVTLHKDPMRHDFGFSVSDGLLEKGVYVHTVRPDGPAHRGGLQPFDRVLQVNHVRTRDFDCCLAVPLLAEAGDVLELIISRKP

B1: CLDN1, O95832 (peptide)
chain: PAPSSGKDYV
With B1 the pKd (GRIP2_7, Q9C0E4) was 3.63, the pKd (LIN7A, O14910) was “below the threshold” and the pKd (LIMK2, P53671) was “below the threshold”. For the same binder, the pKd (PARD3B_1, Q8TEW8) was “below the threshold”, the pKd (MAGI3_2, Q5TCQ9) was “below the threshold” and the pKd (GRASP, Q7Z6J2) was “below the threshold”. For the same binder, the pKd (RAPGEF6, Q8TEU7) was “below the threshold”, the pKd (HTRA2, O43464) was “below the threshold” and the pKd (Inadl_9, Q8NI35) was 3.61. For the same binder, the pKd (APBA1_2, Q02410) was 4.09, the pKd (SNTG2, Q9NY99) was “below the threshold” and the pKd (MAGI2_6, Q86UL8) was “below the threshold”. The pKd (FRMPD2_3, Q68DX3) was “below the threshold”, the pKd (LIN7C, Q9NUP9) was “below the threshold” and the pKd (FRMPD3, Q5JV73) was “below the threshold”. The pKd (DLG3_1, Q92796) was “below the threshold”, the pKd (APBA2_1, Q99767) was “below the threshold” and the pKd (ARHGEF11, O15085) was “below the threshold”. The pKd (Inadl_10, Q8NI35) was “below the threshold”, the pKd (DLG1_2, Q12959) was “below the threshold” and the pKd (DLG2_3, Q15700) was “below the threshold”. For the same binder, the pKd (PCLO, Q9Y6V0) was “below the threshold”, the pKd (DLG5_1, Q8TDM6) was “below the threshold” and the pKd (LNX1_2, Q8TBB1) was “below the threshold”. For the same binder, the pKd (LNX1_1, Q8TBB1) was “below the threshold”, the pKd (TX1BP3, O14907) was “below the threshold” and the pKd (AHNAK1, Q09666) was “below the threshold”.

B2: NLGN2, Q8NFZ4 (peptide)
chain: LPHPHSTTRV
With B2 the pKd (GRIP2_7, Q9C0E4) was “below the threshold”, the pKd (LIN7A, O14910) was “below the threshold” and the pKd (LIMK2, P53671) was “below the threshold”. For the same binder, the pKd (PARD3B_1, Q8TEW8) was “below the threshold”, the pKd (MAGI3_2, Q5TCQ9) was 5.12 and the pKd (GRASP, Q7Z6J2) was 4.18. For the same binder, the pKd (RAPGEF6, Q8TEU7) was “below the threshold”, the pKd (HTRA2, O43464) was “below the threshold” and the pKd (Inadl_9, Q8NI35) was “below the threshold”. The pKd (APBA1_2, Q02410) was “below the threshold”, the pKd (SNTG2, Q9NY99) was 4.16 and the pKd (MAGI2_6, Q86UL8) was “below the threshold”. The pKd (FRMPD2_3, Q68DX3) was “below the threshold”, the pKd (LIN7C, Q9NUP9) was “below the threshold” and the pKd (FRMPD3, Q5JV73) was “below the threshold”. The pKd (DLG3_1, Q92796) was “below the threshold”, the pKd (APBA2_1, Q99767) was “below the threshold” and the pKd (ARHGEF11, O15085) was 3.96. For the same binder, the pKd (Inadl_10, Q8NI35) was “below the threshold”, the pKd (DLG1_2, Q12959) was 4.07 and the pKd (DLG2_3, Q15700) was 4.42. The pKd (PCLO, Q9Y6V0) was “below the threshold”, the pKd (DLG5_1, Q8TDM6) was “below the threshold” and the pKd (LNX1_2, Q8TBB1) was “below the threshold”. The pKd (LNX1_1, Q8TBB1) was 3.64, the pKd (TX1BP3, O14907) was 3.79 and the pKd (AHNAK1, Q09666) was “below the threshold”.

B3: PRKD2, Q9BZL6 (peptide)
chain: QGLAERISVL
For B3, the pKd (GRIP2_7, Q9C0E4) was “below the threshold”, the pKd (LIN7A, O14910) was “below the threshold” and the pKd (LIMK2, P53671) was “below the threshold”. For the same binder, the pKd (PARD3B_1, Q8TEW8) was 4.47, the pKd (MAGI3_2, Q5TCQ9) was “below the threshold” and the pKd (GRASP, Q7Z6J2) was 4.73. The pKd (RAPGEF6, Q8TEU7) was “below the threshold”, the pKd (HTRA2, O43464) was “below the threshold” and the pKd (Inadl_9, Q8NI35) was “below the threshold”. The pKd (APBA1_2, Q02410) was 4.05, the pKd (SNTG2, Q9NY99) was 3.66 and the pKd (MAGI2_6, Q86UL8) was 3.98. The pKd (FRMPD2_3, Q68DX3) was “below the threshold”, the pKd (LIN7C, Q9NUP9) was 4.12 and the pKd (FRMPD3, Q5JV73) was “below the threshold”. The pKd (DLG3_1, Q92796) was “below the threshold”, the pKd (APBA2_1, Q99767) was “below the threshold” and the pKd (ARHGEF11, O15085) was 4.77. The pKd (Inadl_10, Q8NI35) was “below the threshold”, the pKd (DLG1_2, Q12959) was 3.67 and the pKd (DLG2_3, Q15700) was “below the threshold”. The pKd (PCLO, Q9Y6V0) was “below the threshold”, the pKd (DLG5_1, Q8TDM6) was “below the threshold” and the pKd (LNX1_2, Q8TBB1) was “below the threshold”. For the same binder, the pKd (LNX1_1, Q8TBB1) was 3.86, the pKd (TX1BP3, O14907) was 4.38 and the pKd (AHNAK1, Q09666) was “below the threshold”.

B4: TRMT13, Q9NUP7 (peptide)
chain: NHSSSPETTA
For B4, the pKd (GRIP2_7, Q9C0E4) was “below the threshold”, the pKd (LIN7A, O14910) was “below the threshold” and the pKd (LIMK2, P53671) was “below the threshold”. For the same binder, the pKd (PARD3B_1, Q8TEW8) was “below the threshold”, the pKd (MAGI3_2, Q5TCQ9) was “below the threshold” and the pKd (GRASP, Q7Z6J2) was “below the threshold”. For the same binder, the pKd (RAPGEF6, Q8TEU7) was “below the threshold”, the pKd (HTRA2, O43464) was “below the threshold” and the pKd (Inadl_9, Q8NI35) was “below the threshold”. The pKd (APBA1_2, Q02410) was “below the threshold”, the pKd (SNTG2, Q9NY99) was “below the threshold” and the pKd (MAGI2_6, Q86UL8) was “below the threshold”. The pKd (FRMPD2_3, Q68DX3) was “below the threshold”, the pKd (LIN7C, Q9NUP9) was “below the threshold” and the pKd (FRMPD3, Q5JV73) was “below the threshold”. For the same binder, the pKd (DLG3_1, Q92796) was “below the threshold”, the pKd (APBA2_1, Q99767) was “below the threshold” and the pKd (ARHGEF11, O15085) was “below the threshold”. For the same binder, the pKd (Inadl_10, Q8NI35) was “below the threshold”, the pKd (DLG1_2, Q12959) was “below the threshold” and the pKd (DLG2_3, Q15700) was 3.67. For the same binder, the pKd (PCLO, Q9Y6V0) was “below the threshold”, the pKd (DLG5_1, Q8TDM6) was “below the threshold” and the pKd (LNX1_2, Q8TBB1) was “below the threshold”. The pKd (LNX1_1, Q8TBB1) was “below the threshold”, the pKd (TX1BP3, O14907) was 3.87 and the pKd (AHNAK1, Q09666) was “below the threshold”.

B5: TRPV3, Q8NET8 (peptide)
chain: EVEEFPETSV
In the case of B5, the pKd (GRIP2_7, Q9C0E4) is reported as 3.58, the pKd (LIN7A, O14910) is reported as 4.15 and the pKd (LIMK2, P53671) is reported as “below the threshold”. For the same binder, the pKd (PARD3B_1, Q8TEW8) was “below the threshold”, the pKd (MAGI3_2, Q5TCQ9) was 4.27 and the pKd (GRASP, Q7Z6J2) was 3.9. The pKd (RAPGEF6, Q8TEU7) was 3.64, the pKd (HTRA2, O43464) was “below the threshold” and the pKd (Inadl_9, Q8NI35) was 3.93. The pKd (APBA1_2, Q02410) was 4.33, the pKd (SNTG2, Q9NY99) was 5.05 and the pKd (MAGI2_6, Q86UL8) was 4.71. For the same binder, the pKd (FRMPD2_3, Q68DX3) was “below the threshold”, the pKd (LIN7C, Q9NUP9) was 4.51 and the pKd (FRMPD3, Q5JV73) was 3.59. The pKd (DLG3_1, Q92796) was 3.87, the pKd (APBA2_1, Q99767) was “below the threshold” and the pKd (ARHGEF11, O15085) was 4.79. The pKd (Inadl_10, Q8NI35) was “below the threshold”, the pKd (DLG1_2, Q12959) was 4.51 and the pKd (DLG2_3, Q15700) was 4.41. The pKd (PCLO, Q9Y6V0) was “below the threshold”, the pKd (DLG5_1, Q8TDM6) was 3.7 and the pKd (LNX1_2, Q8TBB1) was 3.59. The pKd (LNX1_1, Q8TBB1) was 4.19, the pKd (TX1BP3, O14907) was 4.8 and the pKd (AHNAK1, Q09666) was “below the threshold”.
